# IntAct's records for PubMed 25770211
# B1: 5-hydroxytryptamine receptor 2C (Homo sapiens), P28335 (parent)
# chain: MVNLRNAVHSFLVHLIGLLVWQSDISVSPVAAIVTDIFNTSDGGRFKFPDGVQNWPALSIVIIIIMTIGGNILVIMAVSMEKKLHNATNYFLMSLAIADMLVGLLVMPLSLLAILYDYVWPLPRYLCPVWISLDVLFSTASIMHLCAISLDRYVAIRNPIEHSRFNSRTKAIMKIAIVWAISIGVSVPIPVIGLRDEEKVFVNNTTCVLNDPNFVLIGSFVAFFIPLTIMVITYCLTIYVLRRQALMLLHGHTEEPPGLSLDFLKCCKRNTAEEENSANPNQDQNARRRKKKERRPRGTMQAINNERKASKVLGIVFFVFLIMWCPFFITNILSVLCEKSCNQKLMEKLLNVFVWIGYVCSGINPLVYTLFNKIYRRAFSNYLRCNYKVEKKPPVRQIPRVAATALSGRELNVNIYRHTNEPVIEKASDNEPGIEMQVENLELPVNPSSVVSERISSV
# partner: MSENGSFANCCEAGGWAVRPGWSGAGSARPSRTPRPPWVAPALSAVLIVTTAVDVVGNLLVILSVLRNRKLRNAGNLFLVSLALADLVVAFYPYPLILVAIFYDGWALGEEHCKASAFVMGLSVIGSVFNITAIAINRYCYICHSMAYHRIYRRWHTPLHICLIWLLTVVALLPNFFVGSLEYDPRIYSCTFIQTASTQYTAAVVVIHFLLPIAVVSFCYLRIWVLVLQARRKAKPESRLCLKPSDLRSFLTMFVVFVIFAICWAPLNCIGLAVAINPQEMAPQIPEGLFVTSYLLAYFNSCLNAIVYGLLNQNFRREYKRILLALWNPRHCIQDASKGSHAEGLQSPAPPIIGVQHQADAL
# Variants of: B1
# Conditions: with mtr1b_human MTNR1B
row,Variant,effect of a mutation on the interaction
1,S138N,with no effect
